The values below come from patent publication US20210347908A1 (ELPISCIENCE SUZHOU BIOPHARMA, published 2021).

In experiment [1] the target is T1, Fc tagged human SIRPγ ECD recombinant protein (human, UniProt Q9P1W8 29-360).
T1 construct: range 1-360; cloned range includes the signal peptide; also called hSIRPγ; not shown: human IgG Fc region (hFc) of the pCPC vector
Kind of experiment: ELISA. In short, it runs like this: (§1)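 Coated antigen + antibody, 37° C. 1 h; wash; HRP anti-mouse or anti-human IgG, 37° C. 1 h; TMB 15 min RT; stop 1N HCl; OD450; EC₅₀.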
(In general: ELISA stands for enzyme-linked immunosorbent assay.)

The target of experiment [2] is T1, Fc tagged human SIRPγ ECD recombinant …. Kind of experiment: ELISA. A digest of the protocol: as §1
This is another data set of the same source.

The target in experiment [3] is T2, full length human SIRPα v1 stably expressed on CHOK1 cells (human, UniProt P78324 31-504).
T2 construct: whole, on cells; also called CHOK1-human SIRPα v1-1B4 cells; CHOK1-human SIRPα v1
Kind of experiment: FACS on CHOK1-human SIRPα v1-1B4 cells. As to the method: Species cross reactivity of the purified hybridoma antibodies against human, cyno and mouse SIRPα was determined by FACS assay using CHOK1-human SIRPα v1-1B4 cells, CHOK1-cyno SIRPα-2A2 cells, and CHOK1-C57BL/6 mouse SIRPα-2.22 cells, which stably expressing SIRPα protein. Briefly the antibodies were incubated with 2×10⁵ target cells at 4° C. for 1 hour. After washing, fluorescence labeled anti-mouse or anti-human IgG 2nd antibody (Life Technologies) was added and incubated at 4° C. for 1 hour. Geometric median fluorescence intensity was detected and EC₅₀ was calculated. In particular, it is noted, in contrast to the other antibodies tested in the same experiment, 060 cannot bind with cyno SIRPα and 035 has cross reactivity against C57BL/6 mouse SIRPα.
(§2) hu035.01, the first version of humanized 035, was characterized by FACS assay using CHOK1-human SIRPα v1-1B4 cells, ELISA assay using Fc tagged human SIRPα v2 ECD recombinant protein and SPR analysis using the antigen of 6×His tagged human SIRPα v2 ECD recombinant protein (refer to methods described in Example 3.4, Example 3.3 and Example 4.3). […] In particular, hu035.01 cannot be detected to bind with C57BL/6 mouse SIRPα ECD in ELISA assay possibly due to reduced binding activity (FIG. 5B).

Experiment [4] has as its target T3, 6×His tagged C57BL/6 mouse SIRPα ECD recombinant protein (mouse (C57BL/6), UniProt P97797 32-373).
T3 construct: extracellular domain; bought; also called mSIRPα (C57BL/6); mouse SIRPα (C57BL/6) ECD
T3 sequence: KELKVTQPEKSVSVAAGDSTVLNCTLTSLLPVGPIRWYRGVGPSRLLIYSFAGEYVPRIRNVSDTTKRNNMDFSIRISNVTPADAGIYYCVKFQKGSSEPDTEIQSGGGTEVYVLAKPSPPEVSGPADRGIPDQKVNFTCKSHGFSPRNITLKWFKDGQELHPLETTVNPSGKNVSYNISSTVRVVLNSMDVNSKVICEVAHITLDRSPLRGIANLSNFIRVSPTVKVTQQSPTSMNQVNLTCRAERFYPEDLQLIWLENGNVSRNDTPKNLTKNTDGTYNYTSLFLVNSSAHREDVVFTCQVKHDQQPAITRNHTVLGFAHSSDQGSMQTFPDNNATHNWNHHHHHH
Kind of experiment: ELISA on coated mouse SIRPα (C57BL/6) ECD [Continued) F].

Experiment [5] concerns the target 6×His tagged human SIRPα v2 ECD recombinant protein (human). Kind of experiment: SPR (Biacore), antibody captured, 6×His tagged human SIRPα v2 ECD as analyte. As to the method: Anti-SIRPα chimeric antibodies were characterized for binding affinity against human SIRPα v1, human SIRPα v2 and C57BL/6 mouse SIRPα using Biacore (GE). Briefly the antibodies to be tested were captured to CM5 chip (GE) using Human Antibody Capture Kit (GE). The antigens of 6×His tagged human SIRPα v1, human SIRPα v2 and C57BL/6 mouse SIRPα ECD recombinant proteins were serially diluted for multiple doses and injected at 30 μl/min for 180 s. Buffer flow was maintained for dissociation of 400 s. 3 M MgCl₂ was used for chip regeneration. The association and dissociation curves were fit with 1:1 binding model, and the Ka/Kd/KD values for each antibody were calculated.
as §2
In general terms: In SPR one partner is held on a chip, and binding of the other changes the refractive index at the surface.

Experiment [6] deals with T1, Fc tagged human SIRPγ ECD recombinant …. Kind of experiment: ELISA. In short, it runs like this: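 OD 450 nm readings gave EC₅₀ values after a TMB reaction of 15 min at room temperature, stopped with 1N HCl. Before that, antibodies were bound to antigen-coated wells for 1 h at 37° C. An HRP-labelled anti-mouse or anti-human IgG secondary was then applied for a further 1 h at 37° C.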
This is another data set of the same source.

Experiment [7] shares this target. As to the kind of experiment: competitive ELISA, biotin-CD47 ECD to coated SIRPγ ECD. As to the method:
For CD47 and SIRPγ interaction blocking activity detection, antibody and biotin labeled soluble human CD47 ECD recombinant protein were co-incubated with ELISA microplate coated human SIRPγ ECD recombinant protein. After washing, horseradish peroxidase labeled streptavidin (HRP-SA, Sigma) was added and incubated at 37° C. for 1 hour. Then, 100 μl/well of TMB solution (Biotechnology) was added. After incubation for 15 minutes at room temperature, the reaction was stopped by the addition of 50 μl of 1N HCl. OD 450 nm was read. Blocking ratio and IC₅₀ was calculated. In comparison with other known anti-SIRPα antibodies, 022, 050, 055, and 074 cannot block CD47 and SIRPα interaction. In particular, all of the antibodies of the invention cannot block CD47 and SIRPγ interaction.

Where two headings read alike, the source gives them in different places.

B1: chimeric antibody 035c (antibody, V domains shown)
VH: QIQLVQSGPELRKPGETVKISCKASGYSFTNYAMNWVKQAPGKVLKWMGFINTYTGEPTYADDFKGRFAFSLETSASTAYLQINNLKNEDTATYFCTRTRGYYDFDGGAFDYWGQGTSLTVSS
VL: DIVMTQSQKFMSTSIGDRVSVTCKASQNVGTHLAWYQQKPGQSPKALIFSASYRYIGVPDRFTGSGSGTDFTLTITNVQSEDLAEYFCQQYNTYPLTFGAGTKLELK
As to B1, the half-maximal effective concentration (EC50) in experiment [1] and in experiment [2] was 6.11 nM in each case. The half-maximal effective concentration (EC50 (read off the curve)) in experiment [3] was roughly 0.2 µg/mL; in experiment [4] it was roughly 0.3 µg/mL. Also, in experiment [5], the koff was found to be 5.73e-05 s⁻¹. In addition, the on-rate constant (kon) in experiment [5] turned out to be 93500 M⁻¹ s⁻¹.

B2: Antibody 035 (hybridoma antibody) (antibody, V domains shown)
VH: QIQLVQSGPELRKPGETVKISCKASGYSFTNYAMNWVKQAPGKVLKWMGFINTYTGEPTYADDFKGRFAFSLETSASTAYLQINNLKNEDTATYFCTRTRGYYDFDGGAFDYWGQGTSLTVSS
VL: DIVMTQSQKFMSTSIGDRVSVTCKASQNVGTHLAWYQQKPGQSPKALIFSASYRYIGVPDRFTGSGSGTDFTLTITNVQSEDLAEYFCQQYNTYPLTFGAGTKLELK
notes: mouse hybridoma antibody
Consider B2, for which, in experiment [6], the EC50 is 2.22 nM.

B3: reference antibody 29-AM4-5 (antibody, V domains shown)
VH: EVQLVESGGGLVQPGGSLRLSCAASGFNISYYFIHWVRQAPGKGLEWVASVYSSFGYTYYADSVKGRFTISADTSKNTAYLQMNSLRAEDTAVYYCARFTFPGLFDGFFGAYLGSLDYWGQGTLVTVSS
VL: DIQMTQSPSSLSASVGDRVTITCRASQSVSSAVAWYQQKPGKAPKLLIYSASSLYSGVPSRFSGSRSGTDFTLTISSLQPEDFATYYCQQAVNWVGALVTFGQGTKVEIK
For the molecule B3, the figures for the EC50 in experiment [6], in experiment [1] and in experiment [2] were 0.22 nM, 0.11 nM and 0.11 nM, respectively. The 50% inhibitory concentration (IC50) in experiment [7] worked out at 3.4 nM.

B4: chimeric antibody 022c (antibody, V domains shown)
VH: QIQLVQSGPELKKPGETVKISCKASGYTFTDYAMHWVKQAPGKGLKWMGWKNTETGESTYAEDFKGRFAFFLETSASTAYLQINNVKNEDTATYFCARGGYGSNYVMDYWGQGTSVIVSS
VL: DIQMTQSSSSFSVSLGDRVTITCKASEDIYNRLAWYQQKPGNAPRLLISGATSLETGVPSRFSGSGSGKDYTLSITSLQTEDVATYYCQQYWNSPRTFGGGTKLEIK
As to B4, the EC50 in experiment [1] and in experiment [2] was 18.7 nM each time.

B5: Antibody 022 (hybridoma antibody) (antibody, V domains shown)
VH: QIQLVQSGPELKKPGETVKISCKASGYTFTDYAMHWVKQAPGKGLKWMGWKNTETGESTYAEDFKGRFAFFLETSASTAYLQINNVKNEDTATYFCARGGYGSNYVMDYWGQGTSVIVSS
VL: DIQMTQSSSSFSVSLGDRVTITCKASEDIYNRLAWYQQKPGNAPRLLISGATSLETGVPSRFSGSGSGKDYTLSITSLQTEDVATYYCQQYWNSPRTFGGGTKLEIK
notes: mouse hybridoma antibody
Turning to B5, the EC50 in experiment [6] was determined as 0.76 nM.

B6: chimeric antibody 050c (antibody, V domains shown)
VH: QIQLVQSGPELKKPGETVKISCKASGYTFTHYSMHWVKQAPGKGLKWMGWINTETAEPTYVDDFKGRFAFSLEASASTAFFQINNLKNEDTATYFCARGGLRQGDYWGQGTTLTVSS
VL: QIVLTQSPPIMSASPGEKVTLTCSATSSVSASYLYWFQQKPGSSPKLWIYSTSNLASGVPARFSGSGSGTSYSLTISNMEPADAASYFCHQWSSYPYTFGGGTKLEIK
Take B6: the EC50 in experiment [1] and in experiment [2] was 0.27 nM in each case.

B7: reference antibody KWAR23 (antibody, V domains shown)
VH: EVQLQQSGAELVKPGASVKLSCTASGFNIKDYYIHWVQQRTEQGLEWIGRIDPEDGETKYAPKFQDKATITADTSSNTAYLHLSSLTSEDTAVYYCARWGAYWGQGTLVTVSS
VL: QIVLTQSPAIMSASPGEKVTLTCSASSSVSSSYLYWYQQKPGSSPKLWIYSTSNLASGVPARFSGSGSGTSYSLTISSMEAEDAASYFCHQWSSYPRTFGAGTKLELK
As for B7, the EC50 in experiment [6] was found to be 0.15 nM; in experiment [1] it was 0.05 nM; in experiment [2] it was 0.05 nM. For the same molecule, in experiment [7], the IC50 is 1 nM.

B8: Antibody 050 (hybridoma antibody) (antibody, V domains shown)
VH: QIQLVQSGPELKKPGETVKISCKASGYTFTHYSMHWVKQAPGKGLKWMGWINTETAEPTYVDDFKGRFAFSLEASASTAFFQINNLKNEDTATYFCARGGLRQGDYWGQGTTLTVSS
VL: QIVLTQSPPIMSASPGEKVTLTCSATSSVSASYLYWFQQKPGSSPKLWIYSTSNLASGVPARFSGSGSGTSYSLTISNMEPADAASYFCHQWSSYPYTFGGGTKLEIK
notes: mouse hybridoma antibody
As for B8, the EC50 in experiment [6] was 0.38 nM.

As a reminder, the EC50 is the concentration at which the effect is half-maximal. A word on the EC50 (read off the curve): it is the concentration giving half of the maximal effect. For orientation: koff means the first-order rate constant of dissociation. A word on the kon: it is the rate constant with which the complex forms. Usually IC50 stands for the concentration that gives 50% inhibition.
